The values below come from publication PMC12446771, “Proximity-dependent proteomics and network analysis of adenylyl cyclase isoforms 5, 6, and 9 in cardiomyocytes” (The Journal of Biological Chemistry, 2025).

The data set concerns the molecule itself. Nature of the data set: immunogold EM spatial mapping (univariate Ripley's K-function); intact apical plasma membrane sheets of BHK cells expressing AC5-YFP or AC6-RFP, 4.5 nm gold on anti-YFP or anti-RFP, TEM at 100,000×.

In general, stoichiometry N refers to the number of molecules, sites or subunits per partner or assembly.

B1: AC5-YFP (enzyme)
chain: not shown
notes: adenylyl cyclase type 5; printed as AC5-YFP in the results and YFP-AC5 in the methods; also called YFP-AC5; source: BHK cells, transfected, on intact apical plasma membrane sheets
As for B1, the “stoichiometry N” value amounted to 2.
